Assay results as given in patent publication US20110008323A1.

T1: human Cadherin-11 expressed on 431-D-11 cells (human) (UniProt P55287)
T1 sequence: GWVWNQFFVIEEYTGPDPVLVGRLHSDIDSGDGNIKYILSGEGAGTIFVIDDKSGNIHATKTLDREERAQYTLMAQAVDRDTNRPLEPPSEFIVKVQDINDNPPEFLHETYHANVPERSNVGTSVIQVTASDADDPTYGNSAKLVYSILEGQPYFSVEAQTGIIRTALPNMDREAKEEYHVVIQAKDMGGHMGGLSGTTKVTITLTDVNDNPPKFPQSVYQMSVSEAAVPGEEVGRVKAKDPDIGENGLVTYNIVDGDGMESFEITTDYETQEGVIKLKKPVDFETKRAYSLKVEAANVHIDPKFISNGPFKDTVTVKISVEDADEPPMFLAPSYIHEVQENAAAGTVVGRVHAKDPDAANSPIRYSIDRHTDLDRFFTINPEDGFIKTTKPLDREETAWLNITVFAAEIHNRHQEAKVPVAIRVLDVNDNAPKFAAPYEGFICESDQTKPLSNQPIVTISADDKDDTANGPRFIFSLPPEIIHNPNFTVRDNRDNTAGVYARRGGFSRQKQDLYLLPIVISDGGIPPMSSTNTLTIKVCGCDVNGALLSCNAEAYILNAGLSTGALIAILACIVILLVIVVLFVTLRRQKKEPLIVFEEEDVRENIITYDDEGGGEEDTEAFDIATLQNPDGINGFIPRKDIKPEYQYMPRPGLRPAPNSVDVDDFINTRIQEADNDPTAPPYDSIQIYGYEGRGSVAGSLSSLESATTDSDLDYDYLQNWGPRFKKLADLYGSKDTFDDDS

T2: Cad-11 EC1 domain peptide (first 33 amino acids of the EC1 domain), specificity ELISA of Example 5 (human)
T2 sequence (peptide): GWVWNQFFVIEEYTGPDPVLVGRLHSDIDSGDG

T3: Cad-8 EC1 domain peptide (region overlapping the G1-G33 region of the Cad-11 EC1 domain) (UniProt P55286)
T3 sequence (peptide, conjugated to biotin, looked up): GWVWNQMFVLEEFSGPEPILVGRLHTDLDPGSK


Legend:
[1] = molecular target: T1, human Cadherin-11 expressed on 431-D-11 cells (human); experiment: cell-based or functional assay
[2] = molecular target: T1, human Cadherin-11 expressed on 431-D-11 cells (human); experiment: cell-based or functional assay; remark: listed apart in the source
[3] = molecular target: T2, Cad-11 EC1 domain peptide (first 33 amino acids of the EC1 domain), specificity ELISA of Example 5 (human); experiment: ELISA on EC1 domain peptides (first 33 amino acids)
[4] = molecular target: T3, Cad-8 EC1 domain peptide (region overlapping the G1-G33 region of the Cad-11 EC1 domain); experiment: ELISA on EC1 domain peptides, against the Cad-11 peptide

Row | inhibition of Cad-11 mediated cell aggregation [1] | inhibition of aggregation of Cad-11 expressing 431-D-11 cells at 40 min [1] | inhibition of aggregation of Cad-11-expressing A-431-D cells (photographs, overnight culture) [2] | fold higher binding to Cad-11 than to any of the other cadherins tested [3] | fold lower binding than to Cad-11 [4] | Molecule
1 | 3 µg/mL | 3 µg/mL | – | – | – | human Cad-11-EC1-hIgG2-Fc1 fusion protein (Fc fusion)
2 | 100 µg/mL | – | – | – | – | human Cad-11-EC1-5-Fc fusion protein (from UniProt P55287 54-609)
3 | – | – | 30 µg/mL | > 100 fold | 365 fold | H1M1 anti-Cad-11 antibody (produced by hybridoma H1M1, ATCC accession number PTA-9699) (antibody, from a related filing, V domains shown) VH: EVQLQQSGPELVKPGASVKISCKASGYSFTGYFMNWVKQSHGKSLEWIGRINPYTGDTFYNQKFKGKATLTVDKSSSTAHMELLSLSSEDSAVYYCGRLGSRYWYFDVWGAGTTVTVSS VL: DVLMTQTPLSLPVSLGDQASISCRSSQSIIHSNGNTYLEWYLQKPGQSPKLLIYKVSNRFSGVPDRFTGSGSGTDFTLKISRVEAEDLGVYYCFQGSHVPWTFGGGTKLEIK
